The chains are these.
B1: Full-length Nxf2, 3xFLAG-tagged [D. melanogaster] / Full-length Panx, HA-tagged [D. melanogaster] (parent complex)
chain 1: MPNQMRVLDFGDGSVPIQLDYPDSKIFSKCSSYGDRVPGTHWNEITVHHKGRLEYSPNPEQIILDALYQAIDGADFFPVFYQRGKNMDTMLVRNCKAAIDKLFKQRLSINLKGGASIPISIQLGVAQYQRHQITPTFHIARVVTRLMKQLIQRDGVDGLLNLDNFGSHPEFKNLVVSLGNPSILMNVCQVIHNDDNERFRLNGFILSNNRIRDIRPLTLLANVDYALLDLRGNKIKSAERLCRALEQFRARELLLENNPIVKISNFPANIKSLESNFELVDGKPFNMLHKIFSPLDVEIDLEVDGARIDTNNMWKLPEFENSQHWHAFMIPDPSHEFNQEVFFDFFFIRLDPTLSNFYPCYYKYINTEHVFLVRNCFDQIAHLVNNCNLEMTIPTGDRIFRYYLRMNVSTVKQHHVDPEECIQKAVSQCYVAQNRMLNLERFHSRECLKDVMVSLSSPKILTYVLSVASRKFMTTCSEIRLCHNKVLVLDGAHVLGMMGCLRAVDLSHNWVQDLSSIHSLGNLPLKSLVLHGNKLCRNYRLPSEYVRAVKEVFPQLTTLDGVDLQTNPGQSLQKNFLCDTGAYELVGAFLENYLREFENDEFRHNLYKYYSENSIFTLTCNYNVVQNHQTPKILQRLSKYNRHARNLRNKDYSKASDGVFFGCTYIVEILLQLPRVTHDFHSLQTDVMHYNGKGAVIYVAGLLRDEPPSTRNGHGSKTDIGGVLLGFSRQFVVTFDEANLGLGKRARRLKIANERLHITNPSKTAIRNAFSVNFPDPSERQAEEDSLDVKDHKLLLFQEVTGLISTWVTSIVEEADWDFERALKLFIQKNADHEIPDLAFA
chain 2: MEAPMKLEVKVENYVECGINEDEATPLREGTGETPPHAFACGVPMSGSGWCSDPEDGNLVHHSATPTSDEHLQPSLDTIEPKMEPKIKEDADNAMLDSLLADPFENNSPATLQTPADVKPNAMLDSVEQGSRSCELLPSEFSKRENLDDMDLFSLKAAKTLVPDEQQSFPQNDTPIDDPEAADLIAQKREILKMLEMTAENRKVKHKKKKHKKERSHRSNKHQEESRKRNHSNSSSDEGADDKNQFDCDYRGHKKYKNRRGSASSQNESSKERKLRDTELDYVPVRPDEHFIRPIKFSNLIERRPPQVEFNTVNLSKADKRSLAVARAELVLEQIQQKANKEEPPEFHMVDTICKLPVNESFRNQDCFENPSPICNNMNVVYKFNSTPGTRIDLSKWGLETVPEATKRLLRLLGIDVARLKELQSTVKPSQRILKLKKEQLEQGLAPTEEQETATLYKNAATQTERRTATRDAGTQVRLESKLNGAFWQNPHFDPMNLTQHQSNVMLALQEIYQTLPSATMAVKLSRALAPALAIIKGRQP

In this experiment the parent is B1. Nature of the experiment: FLAG-tag co-immunoprecipitation, western blot quantification; lysates of transfected S2 cells; read off a plot.
For chain 1 R755G, the log10 ratio is ~-0.45 log10 coIP index [arbitrary unit].

(Values after paper PMC6677536 (2019).)
